± gives the standard deviation of the averaged measurements.
Tested on: ATP
Test: switch fluorescence ratio, 500 uM ATP over buffer (Cy3 cluster intensity, sum of 5 cycles each) (fold (ratio)); higher = stronger signal-on switching upon ATP binding; sequences stand for … in TCGTCGGCAGCGTCAGATGTGTATAAGAGACAGTTTTTTTTTTTTTTTTTTTTTTTTT…TC
Settings: aptamer strand: ATP DNA aptamer (quencher-CACCTGGGGGAGTATTGCGGAGGAAGG + anchor), 100 nM annealed; ATP concentration: 500 uM
How it was run: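 Switching-strand clusters labelled with Cy3 on a modified Illumina MiSeq flow-cell were annealed to 100 nM quencher-labelled ATP aptamer, imaged in selection buffer, and re-imaged after 15 min with 500 uM ATP at 22 °C. This was done over five cycles with NaOH stripping and re-annealing in between. The fluorescence ratio is summed target-cycle over summed buffer-cycle Cy3 intensity per cluster, averaged per switch-domain sequence, excluding clusters outside 100-1000 RFU.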
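Note: ATP exposure 15 min at 22 °C before imaging.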

Sequence	switch fluorescence ratio
TTGGTAGAGT	0.965 ± 0.04
AGCAGACTGG	0.988 ± 0.0033
CAGAAGGGCG	1 ± 0.036
GGGGCTTGAC	1.01 ± 0.022
GTTGGAGGGG	0.985 ± 0.03
TGGGTTTCTG	1.02 ± 0.021
TCGATGGGTG	1.01 ± 0.032
GGGGGTGACG	0.995 ± 0.11
ACTAATGCGC	1.05 ± 0.019
GGGTGAGCTT	1.01 ± 0.029
TTTGTTTTTT	0.994 ± 0.03
TGGGTTCGAA	0.98 ± 0.013
GATACGTAGG	1.009 ± 0.0049
TTATGAATAG	0.99 ± 0.011
ATTGGAACGC	1.03 ± 0.012
CTGTGCAACT	1.0489 ± 0.00058
GCGAATTGGA	1.028 ± 0.0019
GGGCGGGGTA	1.01 ± 0.027
CTATGCTCAC	1.45 ± 0.041
TTAAGGGCAT	1 ± 0.015
TTATAGGGG	1 ± 0.039
CCTGATCACC	1.063 ± 0.0098
TAGCGGGTTT	1.03 ± 0.023

Sequence	switch fluorescence ratio
GTTGTGGTGT	1.02 ± 0.014
GGGTTTTTGA	1.02 ± 0.024
CGAACCTTGG	0.998 ± 0.019
TTAGGGCCGC	0.966 ± 0.014
GGGGAATGGA	0.982 ± 0.028
TTGTAGGAAC	0.9978 ± 0.0037
ATGCCATTAG	0.967 ± 0.02
CAAGGGATTT	0.982 ± 0.036
GTGGTTAGAA	0.9841 ± 0.0025
GGGGGCGGCA	0.988 ± 0.042
TCGGGATTTA	1.02 ± 0.033
GTTTTGGCTT	0.983 ± 0.021
GACGGTTAAA	1.12 ± 0.11
GACATAAGTT	1 ± 0.044
GGGGGACGGC	0.985 ± 0.049
GTTTCATTTT	1.01 ± 0.012
GGGGGTTACA	1.005 ± 0.005
TAAAGGGAGT	1 ± 0.024
AAGTCCGTTG	1.009 ± 0.0083
TTATGGGCGA	1 ± 0.046
GTGTATTTTT	0.99 ± 0.024
CGGGAGAGTA	1.54 ± 0.82
CGGAAAGGGA	1.01 ± 0.022

Sequence	switch fluorescence ratio
GGGGAGGCCT	1.01 ± 0.031
TGGAGGGTCG	1.021 ± 0.0023
AGAGAACTTG	0.983 ± 0.1
AACTTGATAT	0.9835 ± 0.0019
TAGACCAAAA	1.02 ± 0.017
GGGAGAAAAT	1.02 ± 0.011
GGTTGTCTGC	0.968 ± 0.055
TTTTCCTAAA	1.06 ± 0.11
ACAAACCACC	1.34 ± 0.057
TTCAGACTTT	0.996 ± 0.022
TTCCCCGTTG	1.12 ± 0.15
AGGCTAGGAG	0.994 ± 0.053
CAGTTCATGA	1.01 ± 0.027
GGGCGGCCTT	1.03 ± 0.068
GTCGTAAAGG	0.998 ± 0.021
ACGAGGCCAG	1.23 ± 0.032
ATGGGGGATC	1.008 ± 0.0082
GTGGGTGCAG	1.03 ± 0.041
AAAAATGACG	0.991 ± 0.028
TTTTTAACGT	1.02 ± 0.027
AGAGGCGAGG	0.9913 ± 0.0013
CCTGGGGGTA	1.04 ± 0.024
TCGGGGGCTG	0.9799 ± 0.0077

Sequence	switch fluorescence ratio
TGAGTAGCGT	0.9631 ± 0.0063
TATGCGGGGG	1.02 ± 0.046
GGGTTTTGAA	0.984 ± 0.021
GGAAGAGGGT	0.997 ± 0.052
TTGATTGGTA	1 ± 0.041
ATTGGATTCA	1.022 ± 0.0023
GGTTGAGTGG	1 ± 0.036
TGGATAGGGT	0.961 ± 0.037
CAACGCATTT	2.36 ± 0.44
AAGGGTTATG	0.994 ± 0.027
ATTTAGACTT	1.039 ± 0.01
CAGATCCGGG	1 ± 0.024
TTTACCTGGG	1.01 ± 0.032
TGATGTGATG	0.995 ± 0.012
TTGTTGGTGA	0.971 ± 0.033
TGGGGGTTTC	0.975 ± 0.053
GCGGATTTGT	0.998 ± 0.038
GGAATTACTG	1.04 ± 0.033
GCCAATGGTT	1.08 ± 0.16
AAGGTGTTCG	0.957 ± 0.016
ATATGTCGCT	1.01 ± 0.026
GATGGGGGTA	0.973 ± 0.033
GTGGCGCCGC	0.959 ± 0.047

Sequence	switch fluorescence ratio
TCTCGGGGTG	1.04 ± 0.089
GAGTTGACGG	1.03 ± 0.013
GGATTTCAGG	0.982 ± 0.017
TAGAATCCGG	0.979 ± 0.011
TTACGGATGT	1.02 ± 0.012
AACTTGGACC	1.05 ± 0.035
AAGTGGTATT	0.992 ± 0.029
CGATGGATGG	1.01 ± 0.037
ATCAGGATCG	1.01 ± 0.014
CAACCGCGTA	2.36 ± 0.1
AGGCTTAGGG	1.03 ± 0.022
ACGTAGGCGG	1.02 ± 0.062
ATGCAAATGC	1.41 ± 0.017
GGGGTATTAT	1 ± 0.028
AAGGTTGGAT	0.987 ± 0.012
AATTATGTTT	0.995 ± 0.03
TGGTGTACTT	1.01 ± 0.012
GGGTGGTTGC	0.99544 ± 4.2e-05
CAACTAAGTT	0.988 ± 0.036
CGAATGGTCG	1.041 ± 0.0095
TCATTGGGAA	1.01 ± 0.021
GAAATAAGGT	0.99 ± 0.024
GGAAAAAATG	1 ± 0.048

Sequence	switch fluorescence ratio
GGGGGTAATG	0.974 ± 0.035
TAGCAACGGG	1.03 ± 0.015
ATTTATTTTA	1.01 ± 0.012
TTTTTAGTCC	1 ± 0.023
AGCATTTCTT	0.98 ± 0.042
ACGGTTGAGC	1 ± 0.021
TTGAGAATAC	1.62 ± 0.68
CTGAGGGGTG	1.01 ± 0.037
TGCGTGTGGG	1.0208 ± 0.001
TAGGGAAATC	0.983 ± 0.013
GAGGGAGGGT	1.02 ± 0.032
TAAATGCGCC	1.09 ± 0.022
CTCACTGCAT	1.46 ± 0.11
CGGGCGGTCG	0.975 ± 0.068
CCGTGATGGG	1.14 ± 0.066
CTGTGGGCGC	1.01 ± 0.027
TGCTATTATG	0.988 ± 0.048
TTTATGGGG	0.965 ± 0.08
CATTTCAAGG	1 ± 0.043
ATTTAGTCGA	0.9519 ± 0.001
GCCCGCTTCG	1.03 ± 0.024
CGTTTAGGTG	1.02 ± 0.038
GGCGGTAATG	1.036 ± 0.005

Sequence	switch fluorescence ratio
ATAAATGAGG	1.01 ± 0.014
TTAGAGAGGC	0.961 ± 0.054
CGGCAGCGGG	1.03 ± 0.013
TGTTTTGAGC	1 ± 0.037
AGGAGTTGGA	0.987 ± 0.013
CGTATAGTTT	0.9865 ± 0.0096
ACTTATAGGA	1.03 ± 0.012
TTATGCCGGG	0.971 ± 0.032
TTAAAGCGGC	0.993 ± 0.083
TTTAGGACGT	0.999 ± 0.059
TCGGTGTGCG	1.03 ± 0.033
GCTGTTTGAT	0.959 ± 0.04
TGGGTTGTTA	0.9852 ± 0.0095
AACAGAAATA	1.01 ± 0.021
TCAGTGGATG	0.9794 ± 0.0032
CCAAGATGTG	0.997 ± 0.01
CTTGGCAGGG	0.99 ± 0.02
TTCTCAAAGA	1.07 ± 0.1
AATCTAGATT	1.002 ± 0.003

— the supplement of paper PMC10126150
